Measurements taken from the supplement of paper PMC9170038.

System: MS2 coat protein
Experiment: apparent KD of MS2 coat protein; designed switch direction (-1 OFF switch, 1 ON switch): -1; higher = weaker reporter binding
Outline: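 The apparent KD reported per design is the median over clusters of curve fits to normalised cluster fluorescence. The RNA switches were transcribed on Illumina chips by stalled E. coli RNA polymerase. SNAP-549-labelled MS2 coat protein was titrated from 0.7 or 1.5 nM, doubling up to 3 µM, in Tris-HCl pH 7.5 buffer containing KCl, MgCl2, BSA, DTT, tRNA and Tween-20, with no input, 200 uM small-molecule ligand, or an oligonucleotide input.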

[1] = Eterna round: R95, input ligand: FMN 200 uM
[2] = Eterna round: R95, input ligand: microRNA oligo, concentration not stated
[3] = Eterna round: R95, input ligand: none
[4] = input ligand: microRNA oligo, concentration not stated

Sequence | apparent KD of MS2 coat protein [1] | apparent KD of MS2 coat protein [2] | apparent KD of MS2 coat protein [3] | apparent KD of MS2 coat protein (input ligand: FMN 200 uM) | apparent KD of MS2 coat protein (input ligand: none) | apparent KD of MS2 coat protein [4]
AGGAAGCAAGGAUAUACGAGGAGAAGGUGGAGAUUUAAAGGACAUGAGGAUCACCCAUGUAGAAGGUGCGAGAA [JR_Exclu2_Sub046] (puzzle: Exclusion 2) | 0.0796 µM | 0.0443 µM | 0.0504 µM | – | – | –
AGUCGGUCAGGAUAUGCAUACGUAGACAUGAGGAUCACCCAUGUGACGUGGGCCUGGUGUGUAGAAGGGACGAGCA [EX5 #82] (Eterna round: R97, puzzle: Exclusion 5) | – | – | – | 0.0326 µM | 0.0176 µM | –
GCUGGUCAAGGAUAUACAUGAGGAUCACCCAUGUGAUUAGCAGUCCUCGGACUGCAAUGUAGAAGGUGACCAGC [E3/2-C1] (Eterna round: R97, puzzle: Exclusion 3) | – | – | – | 1.41 µM | 0.308 µM | –
UUCUGCACGCUGCGGUCCUACAUGAGGAUCACCCAUGUGGUCUGGUGGCGUGGGUCGCCGGACUUGGCUCGUCUUGA [salish99_S_TOV1_R5_044] (Eterna round: R97, puzzle: Sensor, turn-off variant 1) | – | – | – | 0.0182 µM | 0.0191 µM | –
UAUAUGUCAGGAUAUUAGUUGUGUUCGAAUUUCACUUCUGCUGAGAAGGGACAUGAGGAUCACCCAUGUUCCUC [JR_Ex4_Sub006] (Eterna round: R97, puzzle: Exclusion 4) | – | – | – | 0.0171 µM | 0.0159 µM | –
CGCGACUCAGGAUAUACAUGAGGAUCACCCAUGUGGAACGACUGGGUCGAUAAAAGGUGUAGAAGGGAGGAAAA [Invebies] (puzzle: Exclusion 3) | 0.0154 µM | 0.0126 µM | 0.0154 µM | – | – | –
GAGGUGUUAGGAUAUCGGAGAUGGAGAAGAACGGGAAGAGCCGAGAAGGAACAUGAGGAUCACCCAUGUAGGUG [JR_Exclu4_Sub030] (puzzle: Exclusion 4) | 0.326 µM | 0.27 µM | 0.696 µM | – | – | –
GAAUGAGAGCAGGAUAUCUUAUAAAUGUAUGGAAGAGAAGGGCUCACAUGAGGAUCACCCAUGUGGUCCUAGAU [jl-ex6-4.70 jandersonlee mod] (Eterna round: R97, puzzle: Exclusion 6) | – | – | – | 0.215 µM | 0.0365 µM | –
AUUCAACAUGAGGAUCACCCAUGUGAGGAUAUGCGAGUGCAGACUUCGGUUUGAUAGAGCAGAAGGCGCAGGUA [EX1 #13] (Eterna round: R97, puzzle: Exclusion 1) | – | – | – | 0.0696 µM | 0.0308 µM | –
GCGCCAUCGUGAGAUGGCGUAUAUACAUGAGGAUCACCCAUGUAGGAUAUCGAUUGCUUUGCAGUCGAGAAGGGCAUGUAAUUU [JL ENG3 3.93] (Eterna round: R96, puzzle: Exclusion NG 3) | – | – | – | – | – | 0.0258 µM
GCAGCUAACUGUGAUAACAGCACAUGAGGAUCACCCAUGUCUGAGGAUAUGGACUGGAUUACAGUCCAGAAGGCAGAAUGCUGC [Zipper Style 7] (Eterna round: R96, puzzle: Exclusion NG 3) | – | – | – | 0.0108 µM | 0.0134 µM | 0.00887 µM
UUAAUUAAUUAAUUAUAAGAUCAACAUGAGGAUCACCCAUGUGAGGAUAUCAGCUCGAUUAGAGCUGAGAAGGCACAAAUAAUU [ExNG3/16-B1] (Eterna round: R96, puzzle: Exclusion NG 3) | – | – | – | 0.147 µM | 0.044 µM | 0.0536 µM
ACACAGCAAGGAUAUACAUGAGGAUCACCCAUGUGGCGGCCGUUACGGUAGGACUAGUGUAGAAGGUGCAUUGG [EX3 #33] (Eterna round: R97, puzzle: Exclusion 3) | – | – | – | 0.167 µM | 0.21 µM | –
CUUUUGUGAGGAUAUCUGGCUUCGAUCGUGAGAUCGAGGCUAGAGAAGGCACAUGAGGAUCACCCAUGUUCCUU [jl-ex4-4.05 salish99 mod] (Eterna round: R97, puzzle: Exclusion 4) | – | – | – | 0.0661 µM | 0.0199 µM | –
CAGUACUGAGGAUAUACAUGAGGAUCACCCAUGUGUUCCAGCUAGGAAACUAGCGAAAGUAGAAGGCAGUACUG [salish99_ex3_r3_068] (Eterna round: R96, puzzle: Exclusion 3) | – | – | – | 0.562 µM | 0.0246 µM | 0.0199 µM
ACAGAGUCAGGAUAUCGCCGUGGCAGUCUCAACCAGCGGAACGAGAAGGGACAUGAGGAUCACCCAUGUCUGUU [Eternabot (Original) Solution 36] (Eterna round: R97, puzzle: Exclusion 4) | – | – | – | 0.0207 µM | 0.0186 µM | –
AGUACUAACACGAUAGUGUUAGUACAAUAAGCUUGUGAAACAUGAGGAUCACCCAUGUCCUCAUAAGCUCGUCUUAU [salish99_TOv2_r3_030] (puzzle: Sensor v3, turn-off variant 2) | 0.0145 µM | 0.993 µM | 0.0146 µM | – | – | –

Sequence | apparent KD of MS2 coat protein [1] | apparent KD of MS2 coat protein [2] | apparent KD of MS2 coat protein [3] | apparent KD of MS2 coat protein (input ligand: FMN 200 uM) | apparent KD of MS2 coat protein (input ligand: none) | apparent KD of MS2 coat protein [4]
UUGCGCUGAGGAUAUAUAACCGAUGACAUGAGGAUCACCCAUGUGGAUACAAGGGACUGAAUAGAAGGUAGCCAGA [Eternabot (L1) Solution 69] (Eterna round: R97, puzzle: Exclusion 5) | – | – | – | 0.0424 µM | 0.0799 µM | –
GUUGACGGAGGAUAUACAGCCGAGAUCCACCGUGUGGAGGAACAUGAGGAUCACCCAUGUAGAAGGCUGCAGUA [Eternabot (L2) Solution 92] (Eterna round: R97, puzzle: Exclusion 2) | – | – | – | 0.016 µM | 0.0171 µM | –
AUUUAGCAAGUCAGAUCCUACAUGAGGAUCACCCAUGUUGUUCGUCUUAUUUGAAGACAACACAAAAGUGUUGUCUU [Omei Mir OFFv1 B5] (Eterna round: R97, puzzle: Sensor, turn-off variant 1) | – | – | – | 0.0799 µM | 0.077 µM | –
CGUAGCAAAGUGAGGAUAUCUAGAGCGAUAGCUCUAGAGAAGGCACAUGAGGAUCACCCAUGUGAUUAGCUACG [BmEx4/9-A4] (Eterna round: R97, puzzle: Brourd's mod of Exclusion 4) | – | – | – | 0.146 µM | 0.0278 µM | –
UAGGAGUCAGGAUAUGCGAGAGAUUGAAGUAUGGGAAGUGAGCAGAAGGGACAUGAGGAUCACCCAUGUGAGAA [JR_Exclu4_Sub094] (puzzle: Exclusion 4) | 0.0521 µM | 0.0468 µM | 0.045 µM | – | – | –
AGAGAGUCAGGAUAUGACGAAGAGAACAUGAGGAUCACCCAUGUAGCUUCGUAAUCAUCGUCAGAAGGGACGAACU [JR_Ex5_Sub090] (Eterna round: R97, puzzle: Exclusion 5) | – | – | – | 0.0147 µM | 0.0148 µM | –
GCCAAGUCAGGAUAUACAUGAGGAUCACCCAUGUAGGACGCUAUUUUGAUCUUGGUAGGUAGAAGGGACAUGGG [Mainaso] (puzzle: Exclusion 3) | – | 0.0218 µM | – | – | – | –
GGUUGGCGAGGAUAUACAUGAGGAUCACCCAUGUGAGAGAAAAAAGUGAGAACGAAAAGUAGAAGGCGCUGACG [salish99-ex3-25] (Eterna round: R96, puzzle: Exclusion 3) | – | – | – | 0.315 µM | 0.0988 µM | 0.0675 µM
GUACUAGAAUAUCAGUCGCACAUGAGGAUCACCCAUGUCAUGGGUAGAUAAAUAAAUAAAGAUACUGCUCGUCUUAU [Cac sensor turnoff var1 sub1] (Eterna round: R97, puzzle: Sensor, turn-off variant 1) | – | – | – | 0.277 µM | 0.399 µM | –
UCCAAGUUUGUAGGAUAUACUCUCCUUUGGAGAGUAGAAGGACAUGAGGAUCACCCAUGUUGUAUAAAUUUGGGAUGUUCCUCG [random3] (Eterna round: R96, puzzle: Exclusion NG 1) | – | – | – | 0.122 µM | 0.0918 µM | 0.0513 µM
GUAUAACAUGUAGGAUAUGCGUGGCGAAGCUAUGCAGAAGGACAUGAGGAUCACCCAUGUUUUAGCGUCUGCGUACAGAUGCAA [JL ENG1 1.39] (Eterna round: R96, puzzle: Exclusion NG 1) | – | – | – | 0.143 µM | 0.0263 µM | 0.0201 µM
GGUGCGUUUGUGAGGAUAUGCUGGUCCUUGGUUCGGCAGAAGGCACAUGAGGAUCACCCAUGUGGUGUCGUUCC [salish99_Bmod_Ex4_047] (puzzle: Brourd's mod of Exclusion 4) | – | 0.0139 µM | – | – | – | –
GCGGGCUUGGGAGGAUAUACAUGAGGAUCACCCAUGUGUGUUCGGGCUGGCCGGUUUGGGCGCGUGUAGAAGGCUCGGGUUUGC [less GC, A 14%] (Eterna round: R96, puzzle: Exclusion NG 2) | – | – | – | 0.0251 µM | 0.0161 µM | 0.0134 µM
CGUGACUGAGGAUAUCUAUGGUAUCACAUGAGGAUCACCCAUGUCCAGCGAAAGCUGGAGGGAGAAGGCAGUCACG [Fiskers Ex 5 - 32] (puzzle: Exclusion 5) | 0.117 µM | 0.186 µM | 0.25 µM | – | – | –
UCGGCGCGAGGAUAUACGGUUGCUUUUUAGGGUCGUGGCGUACAUGAGGAUCACCCAUGUAGAAGGCGCGCCGC [Apr-15 SS2-30] (puzzle: Exclusion 2) | – | 0.0138 µM | – | – | – | –
GAACUGAGGCAAAGCUUUAGUCGUACAUGAGGAUCACCCAUGUAGGAUAUGGUAGGCUUUGCUUACCAGAAGGACAGAGUGAUC [Mat - Exclusion NG 3 - Mod of JL - D59] (Eterna round: R96, puzzle: Exclusion NG 3) | – | – | – | – | – | 0.0763 µM
UCUUAUCUAUAGGAUAUAGGAGCAGAAUUGCGAUUAGAAGGAUGGACAUGAGGAUCACCCAUGUGCAUGGGCUU [EX6 B.6] (Eterna round: R97, puzzle: Exclusion 6) | – | – | – | 0.0179 µM | 0.0306 µM | –
